In patent US20250304658A1 (ICAHN SCHOOL OF MEDICINE AT MOUNT SINAI, published 2025):
Numbering of substitutions follows the chain as printed. Like-named read-outs stand apart in the source and are kept apart here.

B1: 2B9 (antibody, V domains shown)
VH: EVQLLESGGGLAQPGKSLRLSCAASGFTFSGFAMSWVRQAPGKGLEWVSGISGSGDITYYADSVKGRFTISRDNSKSTLYLQMNSLGAEDTAVYYCAKDPYNWNHGVYGMDVWGQGTTVTVSS
VL: DIQMTQSPSSLSASVGDRVTITCRASQSISSYLNWYQQKPGKAPKFLIYGASSLQSGVPSRFSGSGSGTDFTLTISSLQPEDFAAYYCQQSFNAPLTFGGGTKVEIK
B2: 2A10 (antibody, V domains shown)
VH: EVQLVQSGAEVKKPGESLKISCKGSGYSFTYYWIGWVRQMPGKGLEWMGIIYPGDSDTRYSPSFQGQVTISADKSISTAYLQWSSLKASDTAMYYCTTHARNWNNVAYWGQGTLVTVSS
VL: DIQMTQSPSSLSASVGDRLTITCRASQNINTFLNWYQQNPGKAPKVLIYAASSLESGVPSRFSGSGSGTDFTLTISSLQPEDFATYYCQQSSSTPWTFGQGTKVEIK
B3: 6E1 (antibody, V domains shown)
VH: EVQLLESGGGLVQPGGSLRLSCAASGFTFSSFAMSWVRQAPGKGLEWVSGISGSGGSTYYADSVKGRFTISRDNSKNTLYLQMNSLRAEDTAIYYCAKDKRNWNYGIDSFDFWGQGTMVTVSS
VL: DIQMTQSPSSLSASVGGRVTITCRTSQSISGYLNWYQQKAGKAPKLLIYATSNLQSGVPSRFTGSGSGTDFTLTISSLQPEDFAAYYCHQSHSPPFTFGPGTKVAFK
B4: 2F11 (antibody, V domains shown)
VH: B2 VH with Y31N, I70L, S84N, T97A, N102S, N105Y, S118A
VL: DIQMTQSPSSLSASVGDRVTITCRASQSVNNFLNWYQQKPGTAPKLLIYAASSLQGGVPSRFSGSGSGTDFTLTISSLQPEDFATYYCQQSNTTPWTFGQGTKVEIK

Assays:
Assay in all cases: cell-based or functional assay
[1] = biological target: BK virus VP1 protein, genotype III (BK virus)
[2] = biological target: BK virus VP1 protein, genotype IV (BK virus)
[3] = biological target: BK virus VP1 protein, genotype II (BK virus)
[4] = biological target: BK virus VP1 protein, genotype III (BK virus); remark: listed apart in the source
[5] = biological target: BK virus VP1 protein, genotype IV (BK virus); remark: listed apart in the source
[6] = biological target: BK virus VP1 protein, genotype II (BK virus); remark: listed apart in the source
[7] = biological target: BK virus VP1 protein, genotype III (BK virus); remark: listed apart in the source
[8] = biological target: BK virus VP1 protein, genotype IV (BK virus); remark: listed apart in the source
[9] = biological target: BK virus VP1 protein, genotype II (BK virus); remark: listed apart in the source
[10] = biological target: T1, BK virus VP1 protein, genotype I (BK virus, UniProt P03088 1-362)
T1 sequence: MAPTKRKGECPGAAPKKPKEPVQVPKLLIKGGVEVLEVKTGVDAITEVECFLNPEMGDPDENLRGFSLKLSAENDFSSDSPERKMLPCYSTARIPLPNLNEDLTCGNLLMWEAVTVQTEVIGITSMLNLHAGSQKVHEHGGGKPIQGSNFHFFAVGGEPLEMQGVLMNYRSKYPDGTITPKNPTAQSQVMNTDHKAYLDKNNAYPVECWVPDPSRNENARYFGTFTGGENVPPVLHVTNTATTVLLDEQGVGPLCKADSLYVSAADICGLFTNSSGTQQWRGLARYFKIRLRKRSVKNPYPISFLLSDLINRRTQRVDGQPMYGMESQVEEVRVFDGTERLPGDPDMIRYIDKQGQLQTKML

[11] = biological target: T1, BK virus VP1 protein, genotype I; remark: listed apart in the source
[12] = biological target: T1, BK virus VP1 protein, genotype I; remark: listed apart in the source

Binder | EC50, pseudovirus neutralization [1] [nM] | EC50, pseudovirus neutralization [2] [nM] | EC50, pseudovirus neutralization [3] [nM] | EC50, pseudovirus neutralization (mAb mixed with irrelevant isotype matched mAb M2) [4] [nM] | EC50, pseudovirus neutralization (mAb mixed with irrelevant isotype matched mAb M2) [5] [nM] | EC50, pseudovirus neutralization (mAb mixed with irrelevant isotype matched mAb M2) [6] [nM] | EC50, pseudovirus neutralization [7] [nM] | EC50, pseudovirus neutralization [8] [nM] | EC50, pseudovirus neutralization [9] [nM] | EC50, pseudovirus neutralization (mAb mixed with irrelevant isotype matched mAb M2) [1] [nM] | EC50, pseudovirus neutralization (mAb mixed with irrelevant isotype matched mAb M2) [2] [nM] | EC50, pseudovirus neutralization (mAb mixed with irrelevant isotype matched mAb M2) [3] [nM] | EC50, pseudovirus neutralization (mAb mixed with irrelevant isotype matched mAb M2) [10] [nM] | EC50, pseudovirus neutralization (mAb mixed with irrelevant isotype matched mAb M2) [11] [nM] | EC50, pseudovirus neutralization [12] [nM]
B1 | 0.0068 | 0.0114 | 0.0613 | 0.0054 | 0.0108 | 0.044 | 0.0808 | 0.148 | 0.154 |  |  |  |  |  | 
B2 |  |  |  | 0.0064 | 0.0059 | 0.0557 | 0.0024 | 0.0015 | 0.0094 | 0.000654 | 0.00072 | 0.0112 | > 2 | > 6.67 | > 6.67
B3 |  |  |  | > 6.67 | 0.0496 | > 6.67 | > 6.67 | 0.0095 | > 6.67 | > 2 | 0.021 | > 2 | 0.00078 | 0.00067 | 0.00295
B4 |  |  |  |  |  |  | 0.0105 | 0.0061 | 0.0838 | 0.0061 | 0.00185 | 0.148 | > 2 |  | > 6.67
